# Test: soluble on expression in E. coli; label from the status in PepcDB or PDB records
row,Sequence,soluble on expression in E. coli
1,MTSIALQLLLLLQPYTLTIRRSKMSTKLKQNLEGSFFVVSFSACSPGSKCEISCNITTFRFILYNIAPLFIARKQRQRIGQFAVVRRVRDRKTGEKYAAKFIKKRRYATSRRGVTRQNIEREVRVLQKIRGNSNVVELHAVYETASDVIIVLELVSGGELFDHVCAKECLDEVEAAAFIKQILLAVRHLHSLHIVHLDIKPENVMLKQRGDSQIKIIDFGLSREIEPGAVVKDMVGTPEFVAPEVVNYEALSPATDMWAVGVVTYILLSGGSPFLGDNRDETFSNITRVRYHFSDRYFKNTSKHAKDFIYRLFVRDVDQRATVEECLQHPWIRGPEGNAIDIRKASCITISHIQSFKTRQRWKRCVELVMVLLKASKSSRRIGDGRFDEEDMVASCTLICAEEGNLRALHKLSALHKLLPNATRKSLKSSFSEPNGATAMHCAAKYGHAEVFNYFHMKGGNICARDDNGDTPLHVACRFAQHTVAGYVANEKIDVDSINKTGETALHCAVESADTRVVRLLLQLRPRLDLPNAREETPLHVAAARGHVDCVQALLDANSPIDAVEQDGKTALIIALENGNVDIASILITNGCDINHADHHGDTALHIASKHGLLQAVQTLCHCAVTVDSVNANKKTALHLAAHYGHVDIIRVLLLARADVTLRGDDGLTAELVAVAAERLEAHSLLKMVKSQEIREEYISQLYPLDTSLRRIKLKLLGHSQSGKTRLVQTLHSSRGISSFLESVTRRISDHYSPSSSMKDDGIHSTNGSFVSESNNNSSFDLAAAAGSKYAPPHSQYTRGIDVQTVNINGCGEFSVWEFGGYEPMHTCYDHFVGNADCIHLILYRTSDPTEVQYKQILYWMNFLKGRVTPFEPIGHCGFSSRRSKVIIVGTHATSSLFPQMNQEGEYVSSDIEAMLNTVRLRFETHFDMDHRLILLDATNPSCIGMKTLKMELAKCRTNILAKLLKPLAILDTVVNHLNLVRKKHANFPVITWPDFIQLVRNEINPLTGDAHCRQIVQQLQLIGELVYLRNDLCDADYVVLNAEWFGTHILGQLLSAEFLSKASPNGSYHTSSLAKIFPEIPEQSDLMTILEVLQLCAPDARTGAHEFPVFIQTEAPDSIWRPYSLKEKERDTVYGGVRILPMRGMERSLHSTFPRIQVALRRSINDYQPAKDTQLHQWSECSKLVSQDREAVIRMVGDAVEIRARGPSESATSMFYFMEDLINLVEHAAAEVGPGISLERHFISPKHLKEHREHPALFPPESMMEMQQRESLSVKGTQDEEELFTDVVCFGSRDVARHLTLGIDVGVADLQMASRCELACLLDPPHAMGRDWSILAVKLQLTDQVPDVDSTGQSLSRTDQLLNEWAIHHPEQASVGNLCRILVELGRCDARDALYRTVPLYVFAPLEDQFLLETNDSGVVSSCHSSSEHNPINI,not soluble
2,MELSSEHKALFSLLRAGLWEREPDDLSPFPLTDAQWWNVYRMAVRQTVTGIVCRGLHHLPEALLPGDALMIRWVAETDRIERKNRRMDAVVCLLAQRMGRNGLHPVLLKGQGVAAFYEHPLTRECGDIDLCFLSEEEEREAAELMRRVGCRTEKQPDGSNCYSWQGVEVEHHTRLFDLHNPLLKVYLSALVREHGFTEFRPGGRDGLPEGNQSGEFPATISVPSPLPNLLLLNAHLLKHLLGHGVGLRQFCDMARAYHTLCGSYSPEGLEAVYRRTGLLRWSAQLHTFLTEYLGLHRAELPYADTDACSSPELLRIVLEGGNFGQYGGTKGKASQARWERKLRTFLSFWKHRGFSSAYARKEAFWISVRLIIGNLR,not soluble
3,MGHHHHHHSHALKAGKTASGAGEVVRCLSEQSVAISRCAGGAGARLPALLDEQQVNVLLYDMNGCYSRLKELVPTLPQNRKVSKVEILQHVIDYIRDLQLELNSESEVGTPGGRGLPVRAPLSTLNGEISALTAEAACVPADDRILCR,not soluble
4,MHHHHHHSSGVDLGTENLYFQSMSSVTASAAPGTASLVPDYWIDGSNRDALSDFFEVESELGRGATSIVYRCKQKGTQKPYALKVLKKTVDKKIVRTEIGVLLRLSHPNIIKLKEIFETPTEISLVLELVTGGELFDRIVEKGYYSERDAADAVKQILEAVAYLHENGIVHRDLKPENLLYATPAPDAPLKIADFGLSKIVEHQVLMKTVCGTPGYCAPEILRGCAYGPEVDMWSVGIITYILLCGFEPFYDERGDQFMFRRILNCEYYFISPWWDEVSLNAKDLVRKLIVLDPKKRLTTFQALQHPWVTGKAANFVHMDTAQKKLQEFNARRKLKAAVKAVVASSRLG,soluble
5,MGSDKIHHHHHHMNNNQTRVLITAIGTMNCTTIISELKKAEEVFYVIGADINGKYSIANSNEVDEFFQFPSVLHDREGYVQYLLNFCKEHNVEVFFCVVDEEVEVVAKHKEDFNAIGITLCLANIDAIITCHNKNLFAEWSEKNIAKYCIKRYENITDVNNDNFPIFIKPVEGRASIGCRKIENMEELWKYASVWDNYIAQEYVTGEIVSVDIVRNRKTEQFEVVQKLELLRNSNGCGIAVEIVDIPEIRQLCCIIADIFNLNGVINAEFFITNKGLKIIEINPRLPAGIEYSCMAGLDVVLNALRIARGEACIFKDIKIGAHYAKRYETYEIK,not soluble
6,MVAHQKADFKSKWAMVVTVNNLNDKKRADLREFSEWFIETLRLEGAFIGHYFNYEAAPVTIVETLPGNFDSCTNAYQKIHKEHPQVVLVVHILPQSQSNEYEWMKVLASRYGFVRQGLLYDNCANRFQNVETDQNSVFRNMCQWIYRSGTAIVRNEGNACGILHGKDPKPTFDKVLFNSEDIKDSVFKVLHAEEEPRGADQENMLKISGYPGMLNTFGIAQLLTPYRVNGITITGAQSAVVALENKFQVYQAVQDFNGKKLDRNHKLQVSSLVVSSPAVPLEWPSLKKSKKLVEQVGKPIRLSKVSS,not soluble
7,MAHHHHHHMFHLWPLRPQPNRKPLGSKVVCWPQRRQIPPAPRQVWISQTRRRGPPCSVKEGEPSWRQGTRPDWPELKRSQRQSTAGRATDLSVDKAIPFGALLPCGEASKQHQQQQPNATGNWHDDADAPKEGLETN,soluble
8,MGSDKIHHHHHHMTKLDSFHLGELYRELRVARGLKMKDVVSDKLSQAQLSKFENGQTMLSADKLLTAISAIHMSFAEFEHAYYQYEDSSFFKQAKLISKYHSNKNIEGLEKLLIIHDNNSETYDVYDKLNKLVIRCAIHDLNPEYIISDDDKDFITTYLYSIEEWTEYELYIFGNTLQVLSDSDLIFLSKSFIERDSLYLSIPNNNFRTQLVVLNIIFVLLERKKDYCVHYFMKHLESILTYQDMFVKTVLIFLKKVLNYREGKGTHLIDLKKYIHDVEELGHEDVAEFLKDNIVNLL,not soluble
9,LAGLALAATLLATGKRPVPDQLAGYHETTLSVGHRDVPVSLHIWYPAAQDGTAELVGQNALFYGQYVLRDAKPAPGAHPVVVFSHGSGGNANNHGWLATELARQGMIVVAPNHPGTMSRDSDPHRTPHIWERARDLHAILDSLETNPPLGMQPDMDRVASAGFSLGGFSALSIAGVRVSKAAFIDYCDRHAGEFDCGWMQAASVDFAAIDPAAYEADYRDPRIKATVSIDPALPQAMTGDSLTAATLPILLVSLGQGEEVPPATRVDAMARQMPQARLVETPGAWHFSFLSECSTLGWIIIGLMGEENICSDIGMRDRGVLHEELKAVISTFLS,not soluble
10,MPTLGFRFRAYTDEQTLRALKAQLKLACKIYNTLRWADIYFYQRDGKGLTQTELRQLALDLRKQDDEYKQLYSQVVQQIADRYYEAKKRFFEGLARFPKEKKPHKYYSLVYTQSGWKILHVREIRKGSKKNKKKLITLKLSNLGTFKVIVHRDFPLDKVKRVVVKLTRSERIYITFVVEGYEFPKLPNTGKVVAIDVGVEKLLVTPDGEYFPNLRPLEKALWKVKHLHRELSRKKFLSNNWFKAKVKLARAYEHLKNLRSDLYMKLGKWFAEHYDVVVMEGIHAKQLVGKSLRSLRRRLSDVGFGELRDVLKYQLEKYGKKLILVNPAYTSKTCARCGYVKNDLSLSDRVFVCPNCGWIADRDYNASLNILKGAGSERSLVPVELRPLPVPALRYWHGRAVKQEAPSFMRGLEHHHHHH,soluble
11,MQKFIIHKGIACPLEYANIDTDQIIPKQFLLAVSKQGFGKHLFHDLRYLDDKESVLNMDFNLNKKEYQNSSILVSFENFGSGSSREHAPWALVDYGIRAIIAPSFADIFKNNALGNGLLTIELAKDEVLEIVDELKKSQDKNIEISLLEKRVFFKDKIFSFDLDDFHRICLLEGLDNIALTLKHEAQIKAYEKNSKSFLV,soluble
12,SASSQGKNELKLADWMATLPESMHSIPLTNLAIPGSHDSFSFYIDEASPVGPEQPETVQNFVSVFGTVAKKLMRKWLATQTMNFTGQLGAGIRYFDLRISTKPRDPDNELYFAHGLFSAKVNEGLEEINAFLTDHHKEVVFLDFNHFYGMQKYHHEKLVQMLKDIYGNKMCPAIFAQEVSLKYLWEKDYQVLVFYHSPVALEVPFLWPGQMMPAPWANTTDPEKLIQFLQASITERRKKGSFFISQVVLTPKASTVVKGVASGLRETITERALPAMMQWVRTQKPGESGINIVTADFVELGDFISTVIKLNYVFDEGEANT,soluble
13,MGSDKIHHHHHHMPTPHLDTALSGPILDLERCILNAMPSIEQWLRNEWQTHAAPFYCSVDLRNSGFKLAPVDTNLFPGGFNNLNREFMPLCVQAMMAAIDKICTGARSVLLIPESHTRNIFYLQNLAALHAIMRHAGIHVRIGTLLPEITAPTALDLPGGNKLTLEPIQRKGNRVVLEDFDPCVVLLNNDLSTGTPAVLQNLEQTVIPPLHAGWTSRRKSHHFTAYDNVSQQFASLIGIDPWLINPYFASCGKINFREKKGEDCVANTVDEILHQIREKYAEYGVRKDPFVIVKADAGTYGMGIMTVKDGAQVRTLSRKQRNKMAVVKEGLEVTDIMVQEGVYTFENVDDAVAEPVIYMIDRYVVGGFYRVHTERGVDENLNAPGMHFVPLAFEDTCLLPDREAQPGCSANRFYAYGVIARLALLAAAQELEKSEARIEAIMA,not soluble
14,MKSIIIAAPHSGSGKTTITVGIMECFRRRGLTVAPFKVGPDFIDPGYHRLVTGLPSANLDGWICPPEFVRASFAHHALNADMAIIEGVMGLFDGFGGIADEGSTAQVARLTGAPVILVVDARGLARSAAAILKGFAEFDPSVRVAGVIFNNVGSDSHERILREAVGQSLPELKVFGCIPRDDGLHIPARHLGLLTAEEHPLSGEFLDHLVEVIRDRVDLGLLWGAANPLGAPVPRAEPIPCQTLGGSVRLAVARDEAFCFVYEDNLCLLRRAGAEIVTFSPLRDERLPEDVAGVYLPGGYPEVFADALAANTGMKESLARAVNEGMPVYAECGGFIYLTRGVTDSAGEPESLHEFVGIFPVTTRMLPRRKALGYREVELAADTIIGPAGTLARGHEFHYSEMEEMPADVERAYRVRRGPVDLGMEGYRYRNCLASYVHLHFGSNPELAAAFVARCRSFVTRSRVLEHHHHHH,not soluble
15,SEEYHRHCDEVGFNAEEAHNIVKECVDGVLGGEDYNHNNINQWTASIVEQSLTHLVKLGKAYKYIVTCAVVQKSAYGFHTASSCFWDTTSDGTCTVRWENRTMNCIVNVFAIAIVL,soluble
16,MGAVSAFSWASSGRLHALEVFVMKIPKTYDEIMEHFGGLIDEVTAELLESYAKGETVRVSEALAKSGRVAVEGVVLRVFPVRHFSKNGRSGKVGSVVIQDDCTVRVNFWNEAAEIIEAGDIVEGARIKVRGYARGEEIHVNSLSEVEVFVDFVNISELDEKVGERVNVKGFVSGLGEPEKANEIYISDETGRVKVLLENESLYYAVDIGSYVEIYNALAGEDGIYVDRNSRFSVGE,soluble

# — the DeepSol protein solubility set
